Experimental data published in patent US20260022165A1 (US Dept. of Health and Human Services, published 2026).
Positions count from the first letter of the chain named.

Key:
[1] = target: T1, hFc-hC3d fusion protein (human, UniProt P01024 1002-1303, limits assumed); test: SPR (Biacore X100), Fab over captured hFc-hC3d
T1 construct: domain: C3d; also called immobilized hC3d; not shown: human IgG Fc (hFc), captured by an anti-human IgG CH2 / Fcγ mAb
Procedure: (§1) Kinetic and thermodynamic parameters characterizing the binding of purified Fabs to hC3d or mC3d was performed by surface plasmon resonance (SPR) in a Biacore X100 instrument (GE Healthcare). Using mouse anti-human IgG CH2 mAb immobilized on a CM5 sensor chip, hFc-hC3d or hFc-mC3d fusion proteins were captured at a density <400 RU. Each sensor chip included an empty flow cell for instantaneous background subtraction. All binding assays used 1×HBS-EP+ running buffer (10 mM HEPES, 150 mM NaCl, 3 mM EDTA (pH 7.4), and 0.05% (v/v) Surfactant P20) at a flow rate of 30 μL/min. […] Calculation of association (kₒₙ) and dissociation (koff) rate constants were based on a 1:1 Langmuir binding model. The equilibrium dissociation constant (KD) was obtained by the formula KD=koff/kₒₙ.

[2] = target: T2, hFc-mC3d fusion protein (human; mouse, UniProt P01027 1002-1303, limits assumed); test: SPR (Biacore X100), Fab over captured hFc-mC3d
T2 construct: domain: C3d; not shown: human IgG Fc (hFc), captured by an anti-human IgG CH2 mAb
T2 sequence (P01027 1002-1303 limits assumed): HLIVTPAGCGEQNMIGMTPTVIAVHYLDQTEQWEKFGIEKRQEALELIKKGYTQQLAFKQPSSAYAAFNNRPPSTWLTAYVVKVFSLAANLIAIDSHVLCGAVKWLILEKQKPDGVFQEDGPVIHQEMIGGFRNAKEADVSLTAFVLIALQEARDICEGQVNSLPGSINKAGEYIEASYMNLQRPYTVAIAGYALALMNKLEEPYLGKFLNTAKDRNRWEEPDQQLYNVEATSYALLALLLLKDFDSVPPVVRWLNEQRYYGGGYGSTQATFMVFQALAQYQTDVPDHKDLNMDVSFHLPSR
Procedure: as §1

[3] = target: T3, human complement protein C3d (human, UniProt P01024 1002-1303); test: flow cytometry; His-tagged Fab on zymosan particles opsonized with human serum (C3b/iC3b/C3d); detection AF488 mouse anti-His mAb
T3 construct: domain: C3d; the 30 min deposits on zymosan are a mixture of C3b/iC3b/C3d that the text calls C3d; also called hC3d; human C3d
Procedure: (§2) C3-opsonized zymosan particles (1e6) were incubated with 100 μL of 1 ug/mL His-tagged Fabs in a 96-well V-bottom plate at 37° C. for 1 h. After three washes with PBST (0.05% v/v Tween 20 in PBS), 100 μL of mouse anti-His tag mAb conjugated to horse radish peroxidase (HRP) (R&D Systems, Minneapolis, MN) at 1:1000 dilution in 1% (w/v) BSA/DPBS was added to detect bound Fabs using 2,2′-azino-bis (3-ethylbenzthiazoline)-6-sulfonic acid (Roche/Milipore Sigma, St. Louis, MO) as substrate. The absorbance was measured at 405 nm using a SpectraMax M5 microplate reader and SoftMax Pro software (Molecular Devices, LLC, San Jose, CA). To test for the potential of C3 in NHS to block binding of the mAbs to C3-fragment opsonized zymosan, serial dilutions of NHS were premixed with the opsonized zymosan particles prior to addition of his-tagged Fabs and following the procedure described above.
The binding of rabbit antibodies (Fabs) was detected by flow cytometry following the same procedure described above except using a mouse anti-His tag mAb conjugated to AF488 (Qiagen, Valencia, CA).

[4] = target: T4, full length human C3 present in plasma (human, UniProt P01024 23-1663); test: ELISA, competition; His-tagged Fab (1 ug/mL) on zymosan opsonized with human C3 fragments in the presence of normal human serum (printed PNHCS) at 1/10, 1/50, 1/250 as source of full-length C3; normalized to media without serum
T4 construct: mature; Not purified: it stood in the assay as dilutions of normal human serum; also called full-length, soluble C3; C3 in NHS
Procedure: Zymosan particles opsonized with human C3 fragments were suspended in media with indicated dilutions of NHS (1/10, 1/50 and 1/250) prior to addition of His-tagged anti-C3d Fab antibodies at 1 μg/mL. Mouse anti-His mAb conjugated with HRP was used to determine the binding signal of each Fab by ELISA. Data is normalized to media control containing no NHS.
as §2

B1: Ab3 Fab (His-tagged rabbit/human chimeric anti-C3d Fab) (Fab, V domains shown)
VH: QKQLVESGGRLVTPGGSLTLTCTISGIDLNTYGMTWVRQAPGKGLEYIGIIVSSGNTYYANWAQGRFTISKTSTTVDLKMTSLTASDTATYFCARGLGRAYSSGYGMDGWGPGTLVTVSS
VL: DPVLTQTPSSTSAAVGGTVTIKCQASQNIYTSLAWYQQKPGQPPKLLIYGASNLASGVPSRFKGSRSGTEYTLTISGVEREDAATYYCLGSYTQIDTTFGGGTKLEIK
notes: Fab with rabbit Vκ/human Cκ/rabbit VH, His-tagged; also called Ab3 (κ)
Kd [1]: 13.3 nM
koff [1]: 0.00126 s⁻¹
kon [1]: 94600 M⁻¹ s⁻¹
Kd [2]: 97.6 nM
koff [2]: 0.0227 s⁻¹
kon [2]: 232000 M⁻¹ s⁻¹

B2: Ab2 Fab (His-tagged rabbit/human chimeric anti-C3d Fab) (Fab, V domains shown)
VH: QSVEESGGRLVTPGTPLTLTCTVSGFSLSSYAMTWVRQAPGKGLEWIGVIGTSGMRYYANWAKGRFTISKTSTTVDLKITSPTTEDTATYFCARANFYVGNDESTDAFDPWGPGTLVTVSS
VL: ALVMTQTPPSLSASVGETVRIRCLASEDIYNTISWYQQKPGKPPTLLIYGASNLKSGVPPRFSGSGSGTDYTLTIGGVQSEDAATYYCLGGYSYSSTGLTFGAGTKVEIK
notes: Fab with rabbit Vκ/human Cκ/rabbit VH, His-tagged; also called Ab2 (κ)
Kd [1]: 3.35 nM
koff [1]: 0.00054 s⁻¹
kon [1]: 162000 M⁻¹ s⁻¹
Kd [2]: 9.04 nM
koff [2]: 0.00174 s⁻¹
kon [2]: 193000 M⁻¹ s⁻¹

B3: Ab5 Fab (His-tagged rabbit/human chimeric anti-C3d Fab) (Fab, V domains shown)
VH: QSLEESGGRLVTPGTPLTLTCTVSGFSLSTYTLGWVRQAPGKGLEYIGWIDSSGSAYYASWAKGRFTISKASSTTVDLKMAGLTTEDTATYFCASGNTGGDPLYYGMDPWGPGTLVTVSS
VL: DPVLTQTPSSTSAAVGGTVTIKCQASQNIGRWLAWYQQKPGQPPKLLIYRASDLASGVPSRFKGSGSGTQFTLTISGVQREDAATYYCLGSYSSSDSAFGGGTEVVVK
notes: Fab with rabbit Vκ/human Cκ/rabbit VH, His-tagged; also called Ab5 (κ)
Kd [1]: 0.99 nM
koff [1]: 0.00014 s⁻¹
kon [1]: 141000 M⁻¹ s⁻¹
Kd [2]: 22.9 nM
koff [2]: 0.00568 s⁻¹
kon [2]: 248000 M⁻¹ s⁻¹

B4: Ab4 Fab (His-tagged rabbit/human chimeric anti-C3d Fab) (Fab, V domains shown)
VH: B3 VH with T30R, L33M, G34A, A56T, A71T, A81T, G82S, T98D
VL: DGVMTQTPSSTSAAVGGTVTIKCQASQSIRSWLSWYQQKPGQPPKLLIYEASKLASGVPSRFKGSRSGTEYTLAISGVQREDAATYYCLGSIASDDTAFGAGTNVEIK
notes: Fab with rabbit Vκ/human Cκ/rabbit VH, His-tagged; also called Ab4 (κ)
Kd [1]: 3.1 nM
koff [1]: 0.00028 s⁻¹
kon [1]: 90900 M⁻¹ s⁻¹
Kd [2]: 132 nM
koff [2]: 0.00801 s⁻¹
kon [2]: 60600 M⁻¹ s⁻¹

B5: Ab1 Fab (His-tagged rabbit/human chimeric anti-C3d Fab) (Fab, V domains shown)
VH: QSVEESRGRLVTPGTPLTLTCTVSGIDLSSSAITWVRQAPGKGLEWIGMISTDGATYYANWAKGRFTFSKTSTTADLKITSPTTEDTATYFCARGLTNFSIWGPGTLVTVSS
VL: QPVLTQSPSASAALGASAKLTCTLSSAHKTYTIAWYQQQPGESPRYLMLLKSDGSYTRGPGVPDRFSGSSSGADRYLIIPSVQADDEAGYYCGADYNGGYVFGGGTQLTVTG
notes: Fab from the phage display vector pC3C with rabbit Vλ/human Cλ/rabbit VH, His-tagged; also called Ab1 (λ)
binding result [3]: binds
binding result [4]: no binding (tested: serum dilution 1/10)
